# Measurements: patent US11180770B2, “HPPD variants and methods of use” (BASF Agricultural Solutions Seed US LLC, priority 2017, dated 2021)
# B1: SEQ ID NO:2 (protein)
# chain: MADLYENPMGLMGFEFIEFASPTPGTLEPIFEIMGFTKVATHRSKNVHLYRQGEINLILNNEPNSIASYFAAEHGPSVCGMAFRVKDSQKAYNRALELGAQPIHIDTGPMELNLPAIKGIGGAPLYLIDRFGEGSSIYDIDFVYLEGVERNPVGAGLKVIDHLTHNVYRGRMVYWANFYEKLFNFREARYFDIKGEYTGLTSKAMSAPDGMIRIPLNEESSKGAGQIEEFLMQFNGEGIQHVAFLTDDLVKTWDALKKIGMRFMTAPPDTYYEMLEGRLPDHGEPVDQLQARGILLDGSSVEGDKRLLLQIFSETLMGPVFFEFIQRKGDDGFGPWNFAQLFESIERDQVRRGVLTAD
# modifications: mutant HPPD polypeptide
# B2: 47 (protein)
# chain: MADLYENPMGLMGFEFIEFASPTPGTLEPIFEIMGFTKVATHRSKNVHLYRQGEINLILNNEPNSIASYFAAEHGPSVCGMAFRVKDSQKAYNRALELGAQPIHIDTGPMELNLPAIKGIGGAPLYLIDRFGEGSSIYDIDFVYLEGVERNPVGAGLKVIDHLTHNVYRGRMVYWANFYEKLFNFREARYFDIKGEYTGLTSKAMSAPDGMIRIPLNEESSKGAGQIEEFLMQFNGEGIQHVAFLTDDLVKTWDALKKIGMRFMTAPADNYYEMLEGRLPDHGEPVDQLQARGILLDGSSVEGDKRLLLQIFSETLMGPVFFEFIQRKGDDGFGPHSFKVLFEQMERDQVRRGVLTAD
# modifications: mutant HPPD polypeptide
# B3: SEQ ID NO: 6: mutant PfHPPD: 268A 270N 335P 336D 337S 340V (protein)
# chain: MADLYENPMGLMGFEFIEFASPTPGTLEPIFEIMGFTKVATHRSKNVHLYRQGEINLILNNEPNSIASYFAAEHGPSVCGMAFRVKDSQKAYNRALELGAQPIHIDTGPMELNLPAIKGIGGAPLYLIDRFGEGSSIYDIDFVYLEGVERNPVGAGLKVIDHLTHNVYRGRMVYWANFYEKLFNFREARYFDIKGEYTGLTSKAMSAPDGMIRIPLNEESSKGAGQIEEFLMQFNGEGIQHVAFLTDDLVKTWDALKKIGMRFMTAPADNYYEMLEGRLPDHGEPVDQLQARGILLDGSSVEGDKRLLLQIFSETLMGPVFFEFIQRKGDDGFGPDSFKVLFESIERDQVRRGVLTAD
# modifications: mutant HPPD polypeptide
# notes: mutant PfHPPD: 268A 270N 335P 336D 337S 340V
# B4: SEQ ID NO: 24: mutant PfHPPD: 268A 335P 336H 337S 340V (protein)
# chain: MADLYENPMGLMGFEFIEFASPTPGTLEPIFEIMGFTKVATHRSKNVHLYRQGEINLILNNEPNSIASYFAAEHGPSVCGMAFRVKDSQKAYNRALELGAQPIHIDTGPMELNLPAIKGIGGAPLYLIDRFGEGSSIYDIDFVYLEGVERNPVGAGLKVIDHLTHNVYRGRMVYWANFYEKLFNFREARYFDIKGEYTGLTSKAMSAPDGMIRIPLNEESSKGAGQIEEFLMQFNGEGIQHVAFLTDDLVKTWDALKKIGMRFMTAPADTYYEMLEGRLPDHGEPVDQLQARGILLDGSSVEGDKRLLLQIFSETLMGPVFFEFIQRKGDDGFGPHSFKVLFESIERDQVRRGVLTAD
# modifications: mutant HPPD polypeptide
# notes: mutant PfHPPD: 268A 335P 336H 337S 340V
# B5: SEQ ID NO:3 (protein)
# chain: MADLYENPMGLMGFEFIEFASPTPGTLEPIFEIMGFTKVATHRSKNVHLYRQGEINLILNNEPNSIASYFAAEHGPSVCGMAFRVKDSQKAYNRALELGAQPIHIDTGPMELNLPAIKGIGGAPLYLIDRFGEGSSIYDIDFVYLEGVERNPVGAGLKVIDHLTHNVYRGRMVYWANFYEKLFNFREARYFDIKGEYTGLTSKAMSAPDGMIRIPLNEESSKGAGQIEEFLMQFNGEGIQHVAFLTDDLVKTWDALKKIGMRFMTAPADTYYEMLEGRLPDHGEPVDQLQARGILLDGSSVEGDKRLLLQIFSETLMGPVFFEFIQRKGDDGFGPDSFKVLFESIERDQVRRGVLTAD
# modifications: mutant HPPD polypeptide
# B6: 46 (protein)
# chain: MADLYENPMGLMGFEFIEFASPTPGTLEPIFEIMGFTKVATHRSKNVHLYRQGEINLILNNEPNSIASYFAAEHGPSVCGMAFRVKDSQKAYNRALELGAQPIHIDTGPMELNLPAIKGIGGAPLYLIDRFGEGSSIYDIDFVYLEGVERNPVGAGLKVIDHLTHNVYRGRMVYWANFYEKLFNFREARYFDIKGEYTGLTSKAMSAPDGMIRIPLNEESSKGAGQIEEFLMQFNGEGIQHVAFLTDDLVKTWDALKKIGMRFMTAPGDNYYEMLEGRLPDHGEPVDQLQARGILLDGSSVEGDKRLLLQIFSETLMGPVFFEFIQRKGDDGFGPHSFKVLFEQVERDQVRRGVLTAD
# modifications: mutant HPPD polypeptide
# B7: SEQ ID NO:71 (protein)
# chain: MADLYENPMGLMGFEFIEFASPTPGTLEPIFEIMGFTKVATHRSKNVHLYRQGEINLILNNEPNSIASYFAAEHGPSVCGMAFRVKDSQKAYNRALELGAQPIHIDTGPMELNLPAIKGIGGAPLYLIDRFGEGSSIYDIDFVYLEGVERNPVGAGLKVIDHLTHNVYRGRMVYWANFYEKLFNFREARYFDIKGEYTGLTSKAMSAPDGMIRILLNEESSKGAGQIEEFLMQFNGEGIQHVAFLTDDLVKTWDALKKIGMRFMTAPPDTYYEMLEGRLPDHGEPVDQLQARGILLDGSSVEGDKRLLLQIFSETLMGPVFFEFIQRKGDDGFGPFNFKELFESIERDQVRRGVLTAD
# modifications: mutant HPPD polypeptide
# B8: 48 (protein)
# chain: MADLYENPMGLMGFEFIEFASPTPGTLEPIFEIMGFTKVATHRSKNVHLYRQGEINLILNNEPNSIASYFAAEHGPSVCGMAFRVKDSQKAYNRALELGAQPIHIDTGPMELNLPAIKGIGGAPLYLIDRFGEGSSIYDIDFVYLEGVERNPVGAGLKVIDHLTHNVYRGRMVYWANFYEKLFNFREARYFDIKGEYTGLTSKAMSAPDGMIRIPLNEESSKGAGQIEEFLMQFNGEGIQHVAFLTDDLVKTWDALKKIGMRFMTAPGDNYYEMLEGRLPDHGEPVDQLQARGILLDGSSVEGDKRLLLQIFSETLMGPVFFEFIQRKGDDGFGPHSFKVLFEQMERDQVRRGVLTAD
# modifications: mutant HPPD polypeptide
# B9: SEQ ID NO: 67: mutant PfHPPD: 213K 268A 270S 315R 335P 336H 337S 340V 344Q 345M (protein)
# chain: MADLYENPMGLMGFEFIEFASPTPGTLEPIFEIMGFTKVATHRSKNVHLYRQGEINLILNNEPNSIASYFAAEHGPSVCGMAFRVKDSQKAYNRALELGAQPIHIDTGPMELNLPAIKGIGGAPLYLIDRFGEGSSIYDIDFVYLEGVERNPVGAGLKVIDHLTHNVYRGRMVYWANFYEKLFNFREARYFDIKGEYTGLTSKAMSAPDGMIKIPLNEESSKGAGQIEEFLMQFNGEGIQHVAFLTDDLVKTWDALKKIGMRFMTAPADSYYEMLEGRLPDHGEPVDQLQARGILLDGSSVEGDKRLLLQIFSERLMGPVFFEFIQRKGDDGFGPHSFKVLFEQMERDQVRRGVLTAD
# modifications: mutant HPPD polypeptide
# notes: mutant PfHPPD: 213K 268A 270S 315R 335P 336H 337S 340V 344Q 345M
# System: HPPD polypeptides
# Assay: coupled HPPD activity assay: turnover and residual turnover in crude extracts
# Assay type: biochemical, Pseudomonas fluorescens
# Conditions: for Residual turnover: presence of 100 μM Cmpd. 1, changes in absorbance (OD) at 320 nm; for Residual turnover / Turnover: high substrate concentration; for Residual turnover [%]: 100 μM Cmpd. 1, signal change with inhibitor divided by signal change without inhibitor; for Turnover: absence of Cmpd. 1, kinetic changes in absorbance (OD) at 320 nm, 30 min; for turnover / residual turnover in the presence of Cmpd. 1 compared with a reference HPPD polypeptide, in words: comparison with the reference or parent polypeptide
# Experimental: The activity of HPPD polypeptides was determined in absence or presence of HPPD inhibitors using the coupled HPPD activity assay (FIG. 1).
# For the determination of the residual activity, the apparent kinetic constant (kapp) of the determined substrate conversion was measured as kinetic changes in absorbance (OD) at 320 nm in a coupled assay, in that homogentisate (HGA) formed by HPPD from HPP is directly converted into the well absorbing molecule maleylacetoacetate (MAA) by a second enzyme homogentisate dioxygenase (HGD), applied in excess uniformly in all assays (see FIG. 1). The measurements were performed in 384 micro titer plates (Greiner Bio-One GmbH, Frickenhausen, Germany) by plate readers (Tecan infinite M1000 or M1000PRO, Tecan, Männedorf, Switzerland). The kcat/kM ratio of an enzymatic activity is proportional to the apparent kinetic constant kapp and is proportional to kcat/kM*[E] ([E]=enzyme concentration). […] As both kapp measurements in the presence and absence of inhibitor were performed by use of the identical enzyme sample, crude or purified, and thereby at the same enzyme concentration, the enzyme concentration eliminates from the calculation of residual activity and the ratio of both kapp directly indicates the change of kM due to the inhibition.
# The assay solution used for determination of residual activities in raw HPPD polypeptide samples was composed by 200 mM sodium phosphate (Merck, Darmstadt, Germany, pH 7.0), 5 mM MgCl2 (Merck, Darmstadt, Germany), 20 mM ascorbate (Sigma-Aldrich, St. Louis, USA), 1 mM DTT (Sigma-Aldrich, St. Louis, USA), 0.1% Pluronic F-68 (Sigma-Aldrich, St. Louis, USA), 40 μM FeSO4 (Sigma-Aldrich, St. Louis, USA), about 8 mg/ml purified HGD and 500 μM HPP from a 1 M stock solution in DMSO (Sigma-Aldrich, St. Louis, USA) and equilibrated for 20 min on ice. For every HPPD polypeptide sample two assays were performed in quadruplets, whereby 5 μl of HPPD polypeptide sample were mixed firstly with 5 μl buffer (1×BugBuster®; (Merck, Darmstadt, Germany); in 140 mM Tris, pH 7.8, with 1:25000 diluted BNase®; Qiagen, Hilden, Germany)) or 5 μl inhibitor diluted in the same buffer from a 0.1 M stock solution in DMSO (200 μM resulting in 100 μM in the HPPD polypeptide/inhibitor sample) in the reference and inhibition assay, respectively, and subsequently with 10 μl assay solution. The change in absorbance at 320 nm was followed in 1 min intervals for 30 min. The kapp values were calculated as signal slope over time in the early phase of the kinetic reaction, usually for the first 5-10 minutes of the measurements. Additionally and according to the calculated residual activity, the total conversion, i.e. the absolute change in signal, in the 30 min timeframe was monitored as measure of turnover, and a residual turnover was calculated by dividing the change in signal in the presence of inhibitor by the change in signal in the reference sample without inhibitor.
# Residual turnover were determined according to Example 3 by measuring total change in signal in the presence and absence of Cmpd. 1 (2-chloro-3-(methylsulfanyl)-N-(1-methyl-1H-tetrazol-5-yl)-4-(trifluoromethyl)benzamide). For each mutant HPPD polypeptide, the total change in signal without HPPD inhibitor herbicides served for normalization of the total change in signal in the presence of the herbicide.
Molecule,Residual turnover,Residual turnover [%],Turnover,"turnover / residual turnover in the presence of Cmpd. 1 compared with a reference HPPD polypeptide, in words"
B1,0.026,,,
B2,0.166,53,0.314,
B3,,,,increase in the absolute turnover and absolute residual turnover
B4,,,,increase in the residual turnover
B5,,,,improvement regarding residual turnovers
B6,0.098,55,0.179,
B7,0.022,,,
B8,0.117,52,0.225,
B9,,,,increase significantly the turnover and the residual turnover
